These results are taken from publication PMC9628034.

The target in the test is apolipoprotein E, apoE4 isoform, of human cerebrospinal fluid (human (endogenous in CSF)) (UniProt P02649). The test can be described thus: native gel or EMSA; blue-native PAGE 4-16% of unheated AD CSF; western blot with AB178479; dimer/monomer quotient from band intensities. (In general: A gel shift assay detects complexes by their altered migration in electrophoresis.)

Turning to “apolipoprotein E, apoE4 isoform, of human cerebrospinal fluid (from UniProt P02649 19-317) (natural protein)”, the ratio D/M (apoE dimer/monomer quotient) amounted to 0.24.
